Data: the supplement of paper PMC5998384

What was measured:
HeLa Kyoto [1] = test: solubility in G1/S (NP-40 vs SDS abundance) (log2 ratio); higher = more soluble; settings: cell cycle stage: G1/S
HeLa Kyoto [2] = test: solubility change mitosis vs G1/S (difference of NP-40 vs SDS log2 ratios) (log2 ratio difference); higher = more soluble in mitosis
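Wherever solubility change mitosis vs G1/S (difference of NP-40 vs SDS log2 ratios) is given: synchronized HeLa Kyoto cells (double thymidine block for G1/S, nocodazole release for mitosis), protein amounts in NP-40 versus SDS lysates quantified by mass spectrometry, three biological replicates.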
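Wherever solubility in G1/S (NP-40 vs SDS abundance) is given: HeLa Kyoto cells arrested at G1/S by double thymidine block, proteins quantified by TMT10plex mass spectrometry in mild NP-40 versus SDS extracts, three biological replicates.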

## MFPLKDAEMGAFTFFASALPHDVCGSNGLPLTPNSIKILGRFQILKTITHPRLCQYVDISRGKHERLVVVAEHCERSLEDLLRERKPVSCSTVLCIAFEVLQGLQYMNKHGIVHRALSPHNILLDRKGHIKLAKFGLYHMTAHGDDVDFPIGYPSYLAPEVIAQGIFKTTDHMPSKKPLPSGPKSDVWSLGIILFELCVGRKLFQSLDISERLKFLLTLDCVDDTLIVLAEEHGCLDIIKELPETVIDLLNKCLTFHPSKRPTPDQLMKDKVFSEVSPLYTPFTKPASLFSSSLRCADLTLPEDISQLCKDINNDYLAERSIEEVYYLWCLAGGDLEKELVNKEIIRSKPPICTLPNFLFEDGESFGQGRDRSSLLDDTTVTLSLCQLRNRLKDVGGEAFYPLLEDDQSNLPHSNSNNELSAAATLPLIIREKDTEYQLNRIILFDRLLKAYPYKKNQIWKEARVDIPPLMRGLTWAALLGVEGAIHAKYDAIDKDTPIPTDRQIEVDIPRCHQYDELLSSPEGHAKFRRVLKAWVVSHPDLVYWQGLDSLCAPFLYLNFNNEALAYACMSAFIPKYLYNFFLKDNSHVIQEYLTVFSQMIAFHDPELSNHLNEIGFIPDLYAIPWFLTMFTHVFPLHKIFHLWDTLLLGNSSFPFCIGVAILQQLRDRLLANGFNECILLFSDLPEIDIERCVRESINLFCWTPKSATYRQHAQPPKPSSDSSGGRSSAPYFSAECPDPPKTDLSRESIPLNDLKSEVSPRISAEDLIDLCELTVTGHFKTPSKKTKSSKPKLLVVDIRNSEDFIRGHISGSINIPFSAAFTAEGELTQGPYTAMLQNFKGKVIVIVGHVAKHTAEFAAHLVKMKYPRICILDGGINKIKPTGLLTIPSPQI [TBCK]
HeLa Kyoto [1]
  solubility in G1/S (log2): -0.278
HeLa Kyoto [2]
  solubility change mitosis (log2): -0.162

## MFPVKVKVEKSELEMAKARNQLDAVLQCLLEKSHMDRERLDEEAGKTPSDTHNKDCSIAATGKRPSARFPHQRRKKRREMDDGLAEGGPQRSNTYVIKLFDRSVDLAQFSENTPLYPICRAWMRNSPSVRERECSPSSPLPPLPEDEEGSEVTNSKSRDVYKLPPPTPPGPPGDACRSRIPSPLQPEMQGTPDDEPSEPEPSPSTLIYRNMQRWKRIRQRWKEASHRNQLRYSESMKILREMYERQ [LIN37]
HeLa Kyoto [1]
  solubility in G1/S (log2): 0.591
HeLa Kyoto [2]
  solubility change mitosis (log2): 0.0692

## MFRLLSWSLGRGFLRAAGRRCRGCSARLLPGLAGGPGPEVQVPPSRVAPHGRGPGLLPLLAALAWFSRPAAAEEEEQQGADGAAAEDGADEAEAEIIQLLKRAKLSIMKDEPEEAELILHDALRLAYQTDNKKAITYTYDLMANLAFIRGQLENAEQLFKATMSYLLGGGMKQEDNAIIEISLKLASIYAAQNRQEFAVAGYEFCISTLEEKIEREKELAEDIMSVEEKANTHLLLGMCLDACARYLLFSKQPSQAQRMYEKALQISEEIQGERHPQTIVLMSDLATTLDAQGRFDEAYIYMQRASDLARQINHPELHMVLSNLAAVLMHRERYTQAKEIYQEALKQAKLKKDEISVQHIREELAELSKKSRPLTNSVKL [TTC19]
HeLa Kyoto [1]
  solubility in G1/S (log2): 0.331
HeLa Kyoto [2]
  solubility change mitosis (log2): 0.00456

## MGA
HeLa Kyoto [1]
  solubility in G1/S (log2): -0.38
HeLa Kyoto [2]
  solubility change mitosis (log2): 0.233

## MGASSSSALARLGLPARPWPRWLGVAALGLAAVALGTVAWRRAWPRRRRRLQQVGTVAKLWIYPVKSCKGVPVSEAECTAMGLRSGNLRDRFWLVIKEDGHMVTARQEPRLVLISIIYENNCLIFRAPDMDQLVLPSKQPSSNKLHNCRIFGLDIKGRDCGNEAAKWFTNFLKTEAYRLVQFETNMKGRTSRKLLPTLDQNFQVAYPDYCPLLIMTDASLVDLNTRMEKKMKMENFRPNIVVTGCDAFEEDTWDELLIGSVEVKKVMACPRCILTTVDPDTGVIDRKQPLDTLKSYRLCDPSERELYKLSPLFGIYYSVEKIGSLRVGDPVYRMV [MARC2]
HeLa Kyoto [1]
  solubility in G1/S (log2): -0.315
HeLa Kyoto [2]
  solubility change mitosis (log2): 0.103

## MGDDRPFVCNAPGCGQRFTNEDHLAVHKHKHEMTLKFGPARTDSVIIADQTPTPTRFLKNCEEVGLFNELASSFEHEFKKAADEDEKKAAAGPLDMSLPSTPDIKIKEEEPVEVDSSPPDSPASSPCSPPLKEKEVTPKPVLISTPTPTIVRPGSLPLHLGYDPLHPTLPSPTSVITQAPPSNRQMGSPTGSLPLVMHLANGQTMPVLPGPPVQMPSVISLARPVSMVPNIPGIPGPPVNSSGSISPSGHPIPSEAKMRLKATLTHQVSSINGGCGMVVGTASTMVTARPEQSQILIQHPDAPSPAQPQVSPAQPTPSTGGRRRRTVDEDPDERRQRFLERNRAAASRCRQKRKLWVSSLEKKAEELTSQNIQLSNEVTLLRNEVAQLKQLLLAHKDCPVTALQKKTQGYLESPKESSEPTGSPAPVIQHSSATAPSNGLSVRSAAEAVATSVLTQMASQRTELSMPIQSHVIMTPQSQSAGR [ATF7]
HeLa Kyoto [1]
  solubility in G1/S (log2): 0.504
HeLa Kyoto [2]
  solubility change mitosis (log2): 0.0933

## MGDPGSEIIESVPPAGPEASESTTDENEDDIQFVSEGPLRPVLEYIDLVSSDDEEPSTSYTDENIKRKDHIDYQKDKVALTLARLARHVEVEKQQKEEKNRAFREKIDFQHAHGLQELEFIRGHSDTEAARLCVDQWLKMPGLKTGTINCGTKSSFRRGGHTWVSGKPILCPIMHCNKEFDNGHLLLGHLKRFDHSPCDPTITLHGPFFSSFACVVCYKKFVTQQQYRDHLFDKEATDDGHNNNLLPQIIQCFACPNCFLLFSRKEECSKHMSGKNHFHQSFKLGDNKGIAHPISFPSFAKKLLISLCKDVPFQVKCVACHKTLRSHMELTAHFRVHCRNAGPVAVAEKSITQVAEKFILRGYCPDCNQVFVDETSTQNHKQNSGHKVRVINSVEESVLLYCHSSEGNKDPSSDLHLLLDQSKFSSLKRTMSIKESSSLECIAIPKKKMNLKDKSHEGVACVQKEKSVVKTWFCECNQRFPSEDAVEKHVFSANTMGYKCVVCGKVCDDSGVIRLHMSRIHGGAHLNNFLFWCRTCKKELTRKDTIMAHVTEFHNGHRYFYEMDEVEGETLPSSSTTLDNLTANKPSSAITVIDHSPANSSPRGKWQCRICEDMFDSQEYVKQHCMSLASHKFHRYSCAHCRKPFHKIETLYRHCQDEHDNEIKIKYFCGLCDLIFNVEEAFLSHYEEHHSIDYVFVSEKTETSIKTEDDFPVIETSNQLTCGCRESYICKVNRKEDYSRCLQIMLDKGKLWFRCSLCSATAQNLTDMNTHIHQVHKEKSDEEEQQYVIKCGTCTKAFHDPESAQQHFHRKHCFLQKPSVAHFGSEKSNLYKFTASASHTERKLKQAINYSKSLDMEKGVENDLSYQNIEEEIVELPDLDYLRTMTHIVFVDFDNWSNFFGHLPGHLNQGTFIWGFQGGNTNWKPPLNCKIYNYLNRIGCFFLHPRCSKRKDAADFAICMHAGRLDEQLPKQIPFTILSGDQGFLELENQFKKTQRPAHILNPHHLEGDMMCALLNSISDTTKECDSDDNMGAKNTSIGEEFISTEDVELEEAIRRSLEEM [ZNF451]
HeLa Kyoto [1]
  solubility in G1/S (log2): -0.657
HeLa Kyoto [2]
  solubility change mitosis (log2): -0.197

## MGDWMTVTDPGLSSESKTISQYTSETKMSPSSLYSQQVLCSSIPLSKNVHSFFSAFCTEDNIEQSISYLDQELTTFGFPSLYEESKGKETKRELNIVAVLNCMNELLVLQRKNLLAQENVETQNLKLGSDMDHLQSCYSKLKEQLETSRREMIGLQERDRQLQCKNRNLHQLLKNEKDEVQKLQNIIASRATQYNHDMKRKEREYNKLKERLHQLVMNKKDKKIAMDILNYVGRADGKRGSWRTGKTEARNEDEMYKILLNDYEYRQKQILMENAELKKVLQQMKKEMISLLSPQKKKPRERVDDSTGTVISDVEEDAGELSRESMWDLSCETVREQLTNSIRKQWRILKSHVEKLDNQVSKVHLEGFNDEDVISRQDHEQETEKLELEIQQCKEMIKTQQQLLQQQLATAYDDDTTSLLRDCYLLEEKERLKEEWSLFKEQKKNFERERRSFTEAAIRLGLERKAFEEERASWLKQQFLNMTTFDHQNSENVKLFSAFSGSSDWDNLIVHSRQPQKKPHSVSNGSPVCMSKLTKSLPASPSTSDFCQTRSCISEHSSINVLNITAEEIKPNQVGGECTNQKWSVASRPGSQEGCYSGCSLSYTNSHVEKDDLP [SSX2IP]
HeLa Kyoto [1]
  solubility in G1/S (log2): -0.387
HeLa Kyoto [2]
  solubility change mitosis (log2): 0.187
